The star is where a group is joined. MeOSuc = COC(=O)CCC(=O)*; CH2Cl = ClC*

Experiment [1] has as its target T1, proteinase K (Parengyodontium album, UniProt P06873). Description: Indirect linked assay: proteinase K inhibition read out by reverse transcriptase real time PCR of Xeno RNA template (Cells-to-CT kit). It is filed as biochemical. From the text: The present example provides for inhibition of proteinase K in the context of preparing samples for nucleic acid detection. Said preparation of samples is described by pending U.S. patent application Ser. No. 12/122,274 filed May 16, 2008 entitled “Sample Preparation for In Situ Nucleic Acid Analysis, Methods and Compositions Therefor,” hereby incorporated by reference in its entirety. Embodiments of said patent application provide a process for preparing a sample containing RNA for in situ analysis of RNA or a surrogate thereof. In some embodiments, the process comprises contacting the sample containing RNA with a lysis mixture comprising a polypeptide having protease activity under conditions and for a time to produce a lysate, and admixing at least a portion of the lysate with a stop mixture that comprises an inhibitor of the polypeptide having protease activity at substantially the same temperature as the contacting step to form a stopped mixture. The resultant stopped mixture is preferably compatible with in situ reverse transcriptase and DNA polymerase reactions.
Methoxysuccinyl tetrapeptide chloromethylketone compounds synthesized as set forth in Example 1 herein were analyzed for inhibitory activity of proteinase K in such stopped mixtures as described below. Functional validation for the nucleic acid detection system using inhibitors of embodiments herein was carried out by measuring mRNA levels in biological samples using the TaqMan® Gene Expression Cells-to-CT™ Kit and the TaqMan® Cells-to-CT™ Control Kit (Applied Biosystems, Foster City, Calif.). MicroAmp® optical 96-well reaction plates were purchased from Applied Biosystems. Disposable reagent reservoirs were purchased from VistaLab Technologies, Inc (Mt. Kisco, N.Y.). Reverse transcription (RT) reactions were performed at 37° C. for 60 min, 95° C. for 5 min, and cooled to 4° C. by using GeneAmp® PCR systems 9700 (Applied Biosystems). Real time PCR was performed by using 7500 Fast Real-Time PCR System. (Applied Biosystems).
The present indirect linked assay measures the amount of inhibition of proteinase K activity by assaying reverse transcriptase real time PCR amplification of a template, which amplification is dependent upon reverse transcriptase activity.
Stop solutions (100 μl) contained the following reagents (10× concentration):
Test inhibitor, 11 mM (final concentration when diluted into stopped mixture is 1 mM). Test inhibitor was also used at concentrations such that, when diluted with a lysis mixture to form a stopped mixture as described below, the final concentration of inhibitor in the stopped mixture was 0.75 mM, 0.5 mM, 0.25 mM, 0.10 mM, 0.05 mM and 0 mM (control).
Proteinase K lysis solution (50 μL (no added DNase)) from the TaqMan® gene expression Cells-to-CT™ kit (Applied Biosystems) was aliquoted into 18 tubes. To the test samples (these are a working equivalent to lysis mixtures in the Cells-to-CT™ workflow), stop solution (5 μL) was added; the tubes were mixed and held for 2 min at room temperature. For the control reactions, 50 μl of proteinase K buffer was mixed with 5 μl of stop mix without inhibitor and the resulting reaction mixture was heated at 95° C. for 10 min to thermally inactivate the proteinase K reaction. Next, reverse transcription reagents were prepared, i.e. 15 μL 2×RT buffer, and 1.5 μL of 20×RT enzyme mix, were aliquoted and mixed in the wells of a 96 well plate. To this RT solution, 13.5 μL of each proteinase K containing stopped mixture was added and the solution was mixed well. The resulting mixtures were incubated at room temperature for 1 hr for residual proteinase K activity to degrade the RT enzyme. After 1 hr incubation at room temperature, 1 μL of Xeno™ RNA Control template (Applied Biosystems P/N 4386995 diluted to 25,000 copies/μL in 10 ng/μL poly A) was added to all wells except for the no template control wells. […]

Experiment [2] addresses T1, proteinase K. The following applies: 100 μg/ml proteinase K; cited from earlier work.
In experiment [3] the target is T1, proteinase K. Description: Detection of β-actin RNA in HeLa cell lysates after stop solution (in vitro validation). In kind it is biochemical. The following applies: FIG. 6; ~10,000 HeLa cells lysed, β-actin RT-PCR. On the procedure: HeLa cells (˜10,000 cells) were lysed in 50 μl lysis solution for 5 minutes at room temperature. Stop solution (5 μl) was then added; the lysate-stop solution was mixed, and incubated for 2 minutes at room temperature. A volume of 10 μl of stopped lysate was added to a 50 μl RT reaction followed by addition of 4 μl of RT reaction into a 20 μl PCR reaction using the β-actin primers/probe of the TaqMan® Gene Expression Cells-to-CT™ Kit (Applied Biosystems).

T1 sequence (P06873 106-384): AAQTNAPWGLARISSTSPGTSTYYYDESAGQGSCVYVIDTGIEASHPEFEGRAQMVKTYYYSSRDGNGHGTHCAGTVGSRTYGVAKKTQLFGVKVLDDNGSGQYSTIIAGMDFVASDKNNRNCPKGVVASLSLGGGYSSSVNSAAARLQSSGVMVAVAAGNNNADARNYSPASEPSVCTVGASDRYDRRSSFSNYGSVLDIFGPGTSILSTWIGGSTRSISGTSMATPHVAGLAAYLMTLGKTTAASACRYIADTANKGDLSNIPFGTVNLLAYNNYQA

Turning to “methoxysuccinyl-AlaAlaProVal-chloromethyl ketone (MeOSuc-AAPV-CH2Cl) [reference compound]”, the “lowest concentration in the stopped mixture with inhibitory activity for proteinase K” value in experiment [1] (Example 2, FIG. 1, tested 1 mM to 0.05 mM in stopped mixture) is listed as “about 0.25 mM”. Besides, in experiment [1] (Example 6, FIG. 5, tested 1 mM to 0.05 mM), the “lowest concentration in the stopped mixture inhibitory for proteinase K activity” value is on record as “about 0.25 mM”. The “concentration at which inhibitor begins to lose efficacy” value in experiment [1] (FIG. 1) was “greater than 0.25 mM”. Moreover, the “average Ct (cycle threshold)” value in experiment [1] (FIG. 1, 0.1 mM inhibitor) is 40; in experiment [1] (FIG. 1, 0.25 mM inhibitor), “about 33”; in experiment [1] (FIG. 1, 0.5 mM inhibitor, Ct ~40 = active proteinase K, ~30 = inhibited), “about 30”; in experiment [1] (FIG. 5, 0.1 mM inhibitor) it was “about 40”; in experiment [1] (FIG. 5, 0.25 mM inhibitor) it was “about 29”. Besides, the “lowest concentration with inhibitory activity for proteinase K” value in experiment [2] is given as 0.25 mM. Also, the “concentration providing effective inhibition of proteinase K” value in experiment [3] was 0.5 mM.

Source of the values: patent publication US9114104B2, “Proteinase K inhibitors, methods and compositions therefor” (Life Technologies Corporation, priority 2008, dated 2015).
